Measurements: patent publication US20030099654

B1: mfgl2 fusion protein (murine fgl2 with six histidine residues followed by an enterokinase site at the N-terminus) (protein)
chain: VEEHNLTEGLEDASAQAACPARLEGSGRCEGSQCPFQLTLPTLTIQLPRQLGSMEEVLKEVRTLKEAVDSLKKSCQDCKLQADDHRDPGGNGGNGAETAEDSRVQELESQVNKLSSELKNAKDQIQGLQGRLETLHLVNMNNIENYVDNKVANLTVVVNSLDGKCSKCPSQEHMQSQPVQHLIYKDCSDHYVLGRRSSGAYRVTPDHRNSSFEVYCDMETMGGGWTVLQARLDGSTNFTREWKDYKAGFGNLEREFWLGNDKIHLLTKSKEMILRIDLEDFNGLTLYALYDQFYVANEFLKYRLHIGNYNGTAGDALRFSRHYNHDLRFFTTPDRDNDRYPSGNCGLYYSSGWWFDSCLSANLNGKYYHQKYKGVRNGIFWGTWPGINQAQPGGYKSSFKQAKMMIRPKNFKP

What was measured:
[1] = tested on: 125I-prothrombin
[2] = molecular target: 125I-prothrombin; remark: listed apart in the source

Molecule | prothrombin cleavage assay (125I-prothrombin, 10% SDS-PAGE, autoradiography); positive control [1] | one-stage clotting assay (PCA) in coagulation factor-deficient human plasmas [2] | prothrombin cleavage assay (125I-prothrombin, 10% SDS-PAGE, autoradiography); purified mfgl2 fusion protein [2]
Human Factor Xa | Addition of human factor X in the presence of calcium and factor V produced cleavage products corresponding to known derivatives of prothrombin | – | –
B1 | – | The PCA expressed by recombinant virus infected cells was independent of all factors except 11 (prothrombin) | incubation of 1251-prothrombin with uninfected High 5 cell homogenates or purified protein exhibited no prothrombin cleavage
